The text below walks through data of paper PMC3098871, “High Throughput Determination of TGFβ1/SMAD3 Targets in A549 Lung Epithelial Cells”.

For this data set, the target named is SMAD3 (UniProt P84022 1-425). Briefly: EMSA; poly(dI-dC) 0.25 mg/mL; two complexes, partially abolished by unlabeled probe (40 and 200 ng); 20% glycerol, 5 mM MgCl2, 2.5 mM EDTA, 25 mM DTT, 200 mM NaCl, 50 mM Tris-HCl pH 7.6, 0.25 mg/mL poly(dI-dC), 20 min at room temperature; 6% native PAGE. The following applies: protein: commercial; label: 5'-Cy5 on strand 1; blunt. (In general: A gel shift assay detects complexes by their altered migration in electrophoresis.)
Sequence of SMAD3 (P84022 whole entry): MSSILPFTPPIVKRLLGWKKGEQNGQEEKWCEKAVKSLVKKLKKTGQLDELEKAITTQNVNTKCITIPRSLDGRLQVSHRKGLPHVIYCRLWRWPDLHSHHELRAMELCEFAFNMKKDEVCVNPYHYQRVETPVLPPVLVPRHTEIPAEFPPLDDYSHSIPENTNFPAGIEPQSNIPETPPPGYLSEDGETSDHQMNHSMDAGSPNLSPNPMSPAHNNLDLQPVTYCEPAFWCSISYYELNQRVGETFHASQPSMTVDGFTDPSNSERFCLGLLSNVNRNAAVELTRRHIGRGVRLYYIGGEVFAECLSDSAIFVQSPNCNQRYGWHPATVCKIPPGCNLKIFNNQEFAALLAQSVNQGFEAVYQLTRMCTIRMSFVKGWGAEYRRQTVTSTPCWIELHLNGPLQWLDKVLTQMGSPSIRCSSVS

B1: FOXA2 promoter probe (-42 to -19) (dsDNA)
DNA 1: GATTGCTGGTCGTTTGTTGTGGCT
DNA 2: AGCCACAACAAACGACCAGCAATC
Turning to B1, the binding result is on record as “binds”.
